From publication PMC10993188, “RAD51 separation of function mutation disables replication fork maintenance but preserves DSB repair”

Tests used:
[1] = target: T1, RAD51 WT;BRCA2 Ex27 peptide (TR2) (Homo sapiens;Homo sapiens, UniProt Q06609;P51587 1-339;, |); assay: EMSA super-shift; 5.7 uM Ex27, 1 mM ATP, 1 mM Mg2+; almost completely resistant to GST-BRC3; EMSA: 10 mM Tris-HCl pH 7.5, 10 mM KCl, 1 mM MgCl2, 1 mM ATP, 1 mM DTT, 25 C, 25 nM DNA, 1.1 uM RAD51; BLI: 50 mM Tris-HCl pH 7.5, 50 mM KCl, 5 mM MgCl2, 2 mM ATP, 0.05% Tween 20, 15 nM DNA; stopped-flow buffer not in material; conditions: tags: ;; label: 5' FAM (FITC); single strand
[2] = target: T2, RAD51 WT (Homo sapiens, UniProt Q06609 1-339); assay: EMSA; 1 mM ATP, 1 mM Mg2+; no Ex27; complex disassembled by GST-BRC3; EMSA: 10 mM Tris-HCl pH 7.5, 10 mM KCl, 1 mM MgCl2, 1 mM ATP, 1 mM DTT, 25 C, 25 nM DNA, 1.1 uM RAD51; BLI: 50 mM Tris-HCl pH 7.5, 50 mM KCl, 5 mM MgCl2, 2 mM ATP, 0.05% Tween 20, 15 nM DNA; stopped-flow buffer not in material; conditions: protein: recombinant; chain copies: 10; label: 5' FAM (FITC); single strand
[3] = target: T2, RAD51 WT; assay: BLI; 2 mM ATP, 5 mM Mg2+; 2 uM RAD51; dissociated by GST-BRC4; EMSA: 10 mM Tris-HCl pH 7.5, 10 mM KCl, 1 mM MgCl2, 1 mM ATP, 1 mM DTT, 25 C, 25 nM DNA, 1.1 uM RAD51; BLI: 50 mM Tris-HCl pH 7.5, 50 mM KCl, 5 mM MgCl2, 2 mM ATP, 0.05% Tween 20, 15 nM DNA; stopped-flow buffer not in material; conditions: protein: recombinant; chain copies: 10; label: 3' biotin; single strand
[4] = target: T3, RAD51 S181P (SP) (Homo sapiens, UniProt Q06609 1-339, S181P); assay: as above; conditions: protein: recombinant; chain copies: 10; label: 3' biotin; single strand
[5] = target: T2, RAD51 WT; assay: stopped-flow PIFE; no Ex27; EMSA: 10 mM Tris-HCl pH 7.5, 10 mM KCl, 1 mM MgCl2, 1 mM ATP, 1 mM DTT, 25 C, 25 nM DNA, 1.1 uM RAD51; BLI: 50 mM Tris-HCl pH 7.5, 50 mM KCl, 5 mM MgCl2, 2 mM ATP, 0.05% Tween 20, 15 nM DNA; stopped-flow buffer not in material; conditions: protein: recombinant; chain copies: 10; label: 5' Cy3; single strand
[6] = target: T3, RAD51 S181P (SP); assay: stopped-flow PIFE; no Ex27; similar mechanism to WT, slower assembly at suboptimal concentrations; EMSA: 10 mM Tris-HCl pH 7.5, 10 mM KCl, 1 mM MgCl2, 1 mM ATP, 1 mM DTT, 25 C, 25 nM DNA, 1.1 uM RAD51; BLI: 50 mM Tris-HCl pH 7.5, 50 mM KCl, 5 mM MgCl2, 2 mM ATP, 0.05% Tween 20, 15 nM DNA; stopped-flow buffer not in material; conditions: protein: recombinant; chain copies: 10; label: 5' Cy3; single strand
[7] = target: T1, RAD51 WT;BRCA2 Ex27 peptide (TR2); assay: stopped-flow PIFE; Ex27 increases amplitude and decreases binding rate; EMSA: 10 mM Tris-HCl pH 7.5, 10 mM KCl, 1 mM MgCl2, 1 mM ATP, 1 mM DTT, 25 C, 25 nM DNA, 1.1 uM RAD51; BLI: 50 mM Tris-HCl pH 7.5, 50 mM KCl, 5 mM MgCl2, 2 mM ATP, 0.05% Tween 20, 15 nM DNA; stopped-flow buffer not in material; conditions: tags: ;; label: 5' Cy3; single strand

T2 sequence (Q06609 whole entry): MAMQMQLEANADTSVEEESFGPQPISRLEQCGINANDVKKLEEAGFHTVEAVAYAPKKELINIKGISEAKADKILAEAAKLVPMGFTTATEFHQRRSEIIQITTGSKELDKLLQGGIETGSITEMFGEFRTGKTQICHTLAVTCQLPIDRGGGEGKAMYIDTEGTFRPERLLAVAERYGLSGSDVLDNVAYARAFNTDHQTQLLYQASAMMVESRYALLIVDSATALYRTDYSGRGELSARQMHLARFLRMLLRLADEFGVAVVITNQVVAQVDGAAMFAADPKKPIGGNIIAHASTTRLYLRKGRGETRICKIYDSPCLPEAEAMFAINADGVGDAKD
T3 sequence (Q06609 whole entry S181P): as the sequence (Q06609 whole entry) above, with S181P counted along it

B1: 5'FITC-90mer ssDNA (ssDNA)
DNA: AAATCAATCTAAAGTATATATGAGTAAACTTGGTCTGACAGTTACCAATGCTTAATCAGTGAGGCACCTATCTCAGCGATCTGTCTATTT
- binding result [1]: binds
- binding result [2]: binds

B2: oligo-dT 43-mer (ssDNA)
DNA: TTTTTTTTTTTTTTTTTTTTTTTTTTTTTTTTTTTTTTTTTTT
- binding result [3]: binds
- binding result [4]: binds

B3: Cy3-(dT)79 (ssDNA)
DNA: TTTTTTTTTTTTTTTTTTTTTTTTTTTTTTTTTTTTTTTTTTTTTTTTTTTTTTTTTTTTTTTTTTTTTTTTTTTTTTT
- binding result [5]: binds
- binding result [6]: binds
- binding result [7]: binds
